This is an account of results in paper PMC9633730, “Endowing homodimeric carbamoyltransferase GdmN with iterative functions through structural characterization and mechanistic studies” (Nature Communications, 2022).

In assay [1] the target is GdmN (Streptomyces hygroscopicus XM201). Nature of the assay: SEC; Superdex 200 Increase 10/300 GL, buffer C (10 mM Tris, 150 mM NaCl, pH 8.0), calibrated with Bio-Rad gel filtration standards; monomer to dimer.
In a further assay the target is T1, GdmN (Streptomyces hygroscopicus, UniProt Q84G19, V24Y/G157A/R158A/G188R).
T1 construct: homodimer; Kae1-like M1-L351, YrdC-like G368-A571, dimerization domain D574-L674; one iron ion per monomer
T1 sequence (Q84G19 entry or part of it V24Y/G157A/R158A/G188R): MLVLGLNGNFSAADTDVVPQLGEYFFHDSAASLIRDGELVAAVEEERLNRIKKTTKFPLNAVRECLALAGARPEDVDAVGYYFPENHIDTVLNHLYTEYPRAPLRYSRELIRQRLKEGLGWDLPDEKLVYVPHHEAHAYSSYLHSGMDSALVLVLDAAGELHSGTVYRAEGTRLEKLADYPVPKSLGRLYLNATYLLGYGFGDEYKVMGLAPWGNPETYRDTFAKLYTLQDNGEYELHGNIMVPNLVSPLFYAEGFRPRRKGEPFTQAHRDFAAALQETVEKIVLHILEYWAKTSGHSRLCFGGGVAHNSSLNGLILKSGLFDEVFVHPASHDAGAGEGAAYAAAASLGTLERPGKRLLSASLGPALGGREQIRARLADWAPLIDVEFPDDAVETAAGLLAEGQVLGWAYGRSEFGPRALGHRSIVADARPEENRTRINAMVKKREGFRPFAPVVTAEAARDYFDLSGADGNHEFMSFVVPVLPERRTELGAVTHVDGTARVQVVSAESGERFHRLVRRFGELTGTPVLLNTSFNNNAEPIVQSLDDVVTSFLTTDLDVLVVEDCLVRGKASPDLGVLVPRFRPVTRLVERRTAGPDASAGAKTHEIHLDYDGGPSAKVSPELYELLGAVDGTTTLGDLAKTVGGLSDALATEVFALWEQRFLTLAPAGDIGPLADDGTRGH
Nature of the assay: X-ray co-crystal structure. Format: binding. The following applies: reaction intermediate formed from ATP, MgCl2 and carbamoyl phosphate; carbamoyl group rotated.

GdmN (enzyme): the stoichiometry N in assay [1] stood at 2.

Take `NC(=O)OP(=O)(O)OC[C@H]1O[C@@H](n2cnc3c(N)ncnc32)[C@H](O)[C@@H]1O` [carbamoyl-AMP]: the X-ray co-crystal structure entry at GdmN is on record as “complex of GdmN V24Y/G157A/R158A/G188R mutant with carbamoyl-AMP (PDB: 7VZQ)”.
